What was measured:
[1] = system: HT-1080/neo/HPRT editing lines; test: HPRT gene editing (HAT selection) after shRNA inhibition of selected replication fork proteins; type: cell-based, human; details: shRNA induced 24 hours with doxycycline (1 μg/ml); AAV-HPe3 MOI 2×10^4
Protocol: (§1) To determine the effect of shRNA specific for selected replication fork proteins on gene editing, experiments were performed using the HT-1080/neo/HPRT editing lines. Each gene indicated in Table 8 below was inhibited with a shRNA (sequences provided in Table 7 below) expressed from a lentivirus vector.
(§2) HPRT and neo gene editing frequencies were measured by G418 or HAT selection and normalized to a cell that was not treated with a shRNA.
(§3) Cells were first transduced with a lentivirus expressing a shRNA specific for the targeted genes. 2×10^4 HT-1080 cells transduced with the specific shRNAs were then plated in 6-well plates on day 1, and the expression of the shRNA was induced for 24 hours with doxycycline (1 μg/ml). On day 2, cells were transduced with AAV-HSN or AAV-HPe3 at a MOI of 2×10^4. On day 4, the cells were treated with trypsin and 0.1% of the cells were replated without selection in 6-well plates to determine the number of colony forming units. The remainder of the cells were replated in 6-well plates for further analysis of gene editing frequency.
(§4) On day 5, neo gene correction experiments were performed by the addition of G418 (700 ug/ml) to the experimental plates. On day 16, plates were washed with PBS and the colonies were stained with Coomassie brilliant blue G. The percentage of neo gene correction was calculated as the number of G418-resistant CFU per total CFU for each original well. On day 6, HPRT gene correction experiments were performed by adding 1× HAT (hypoxanthine-aminopterin-thymidine medium) to the experimental plates. On day 16, plates were washed with PBS and the colonies were stained with Coomassie brilliant blue G. The percentage of HPRT gene correction was calculated as the number of HAT-resistant CFU per total CFU for each original well.

[2] = system: HT-1080/neo/HPRT editing lines; test: neo gene editing (G418 selection) after shRNA inhibition of selected replication fork proteins; type: cell-based, human; details: shRNA induced 24 hours with doxycycline (1 μg/ml); AAV-HSN MOI 2×10^4
Protocol: as §1, §2, §3, §4

B1: Sh40: shRNA cloned in pTRIPZ (Dharmacon), target gene RMI1/BLAP75; SEQ ID NO: 105 (nucleic acid)
chain: GTTGACAGTGAGCGTGATCTAGTTACAGCTGAAGCATAGTGAAGCCACAGATGTATGCTTCAGCTGTAACTAGATCATGCCTACTGCCTC
HAT (HPRT) gene editing frequency normalized to a cell not treated with a shRNA [1]: 1.61
G418 (neo) gene editing frequency normalized to a cell not treated with a shRNA [2]: 1.37

B2: SH60: shRNA cloned in pTRIPZ (Dharmacon), target gene BLM; SEQ ID NO: 109 (nucleic acid)
chain: GTTGACAGTGAGCGCGGAGTCTGCGTGCGAGGATTATAGTGAAGCCACAGATGTATAATCCTCGCACGCAGACTCCTTGCCTACTGCCTC
HAT (HPRT) gene editing frequency normalized to a cell not treated with a shRNA [1]: 1.38
G418 (neo) gene editing frequency normalized to a cell not treated with a shRNA [2]: 2.08

B3: SH63: shRNA cloned in pTRIPZ (Dharmacon), target gene BLM; SEQ ID NO: 112 (nucleic acid)
chain: GTTGACAGTGAGCGAAGGTTATCTGTGCTACAATTGTAGTGAAGCCACAGATGTACAATTGTAGCACAGATAACCTGTGCCTACTGCCTC
HAT (HPRT) gene editing frequency normalized to a cell not treated with a shRNA [1]: 0.92
G418 (neo) gene editing frequency normalized to a cell not treated with a shRNA [2]: 1.99

B4: SH62: shRNA cloned in pTRIPZ (Dharmacon), target gene BLM; SEQ ID NO: 111 (nucleic acid)
chain: GTTGACAGTGAGCGCGGTGTCCATTACTTCAATATTTAGTGAAGCCACAGATGTAAATATTGAAGTAATGGACACCATGCCTACTGCCTC
HAT (HPRT) gene editing frequency normalized to a cell not treated with a shRNA [1]: 2.34
G418 (neo) gene editing frequency normalized to a cell not treated with a shRNA [2]: 2.28

B5: SH7: shRNA cloned in pTRIPZ (Dharmacon), target gene 1B3, POLE4; SEQ ID NO: 101 (nucleic acid)
chain: GTTGACAGTGAGCGCGGAGAGACTTGGATAATGCAATAGTGAAGCCACAGATGTATTGCATTATCCAAGTCTCTCCTTGCCTACTGCCTC
HAT (HPRT) gene editing frequency normalized to a cell not treated with a shRNA [1]: 8.24
G418 (neo) gene editing frequency normalized to a cell not treated with a shRNA [2]: 1.57

B6: Sh39: shRNA cloned in pTRIPZ (Dharmacon), target gene BLM; SEQ ID NO: 104 (nucleic acid)
chain: GTTGACAGTGAGCGTAAGCAGCGATGTGATTTGCATTAGTGAAGCCACAGATGTAATGCAAATCACATCGCTGCTTATGCCTACTGCCTC
HAT (HPRT) gene editing frequency normalized to a cell not treated with a shRNA [1]: 3.8
G418 (neo) gene editing frequency normalized to a cell not treated with a shRNA [2]: 1.67

B7: sh15: shRNA cloned in pTRIPZ (Dharmacon), target gene 2b3, pms2; SEQ ID NO: 103 (nucleic acid)
chain: GTTGACAGTGAGCGCCCGTAGTCACTGTATGGAATATAGTGAAGCCACAGATGTATATTCCATACAGTGACTACGGTTGCCTACTGCCTC
HAT (HPRT) gene editing frequency normalized to a cell not treated with a shRNA [1]: 17.59
G418 (neo) gene editing frequency normalized to a cell not treated with a shRNA [2]: 3.88

B8: Sh42: shRNA cloned in pTRIPZ (Dharmacon), target gene 12A5, MEIS2; SEQ ID NO: 107 (nucleic acid)
chain: GTTGACAGTGAGCGCGGACTTTATCAGAAACTCAAATAGTGAAGCCACAGATGTATTTGAGTTTCTGATAAAGTCCTTGCCTACTGCCTC
G418 (neo) gene editing frequency normalized to a cell not treated with a shRNA [2]: 1.26

B9: SH61: shRNA cloned in pTRIPZ (Dharmacon), target gene BLM; SEQ ID NO: 110 (nucleic acid)
chain: GTTGACAGTGAGCGAAACCTTCCTATGATATTGATATAGTGAAGCCACAGATGTATATCAATATCATAGGAAGGTTGTGCCTACTGCCTC
HAT (HPRT) gene editing frequency normalized to a cell not treated with a shRNA [1]: 2.82
G418 (neo) gene editing frequency normalized to a cell not treated with a shRNA [2]: 2.64

B10: SH79: shRNA cloned in pTRIPZ (Dharmacon), target gene POLA1; SEQ ID NO: 113 (nucleic acid)
chain: GTTGACAGTGAGCGCGCAGATCATGTGTGAGCTAAATAGTGAAGCCACAGATGTATTTAGCTCACACATGATCTGCATGCCTACTGCCTC
modifications: listed as DNA, chemistry not fully specified
HAT (HPRT) gene editing frequency normalized to a cell not treated with a shRNA [1]: 2.46
G418 (neo) gene editing frequency normalized to a cell not treated with a shRNA [2]: 1.24

B11: SH9: shRNA cloned in pTRIPZ (Dharmacon), target gene 1B5, anapc5; SEQ ID NO: 102 (nucleic acid)
chain: GTTGACAGTGAGCGCGCGCATTATCTCAGCTACTTATAGTGAAGCCACAGATGTATAAGTAGCTGAGATAATGCGCTTGCCTACTGCCTC
HAT (HPRT) gene editing frequency normalized to a cell not treated with a shRNA [1]: 29.10
G418 (neo) gene editing frequency normalized to a cell not treated with a shRNA [2]: 2.81

B12: Sh41: shRNA cloned in pTRIPZ (Dharmacon), target gene Topo III alpha; SEQ ID NO: 106 (nucleic acid)
chain: GTTGACAGTGAGCGTGGACATTTACTGGCTCATGATTAGTGAAGCCACAGATGTAATCATGAGCCAGTAAATGTCCATGCCTACTGCCTC
HAT (HPRT) gene editing frequency normalized to a cell not treated with a shRNA [1]: 1.66
G418 (neo) gene editing frequency normalized to a cell not treated with a shRNA [2]: 1.42

B13: SH56: shRNA cloned in pTRIPZ (Dharmacon), target gene 12B12, ORC1L; SEQ ID NO: 108 (nucleic acid)
chain: GTTGACAGTGAGCGCGCCACGTTTCAACAGATATATTAGTGAAGCCACAGATGTAATATATCTGTTGAAACGTGGCTTGCCTACTGCCTC
HAT (HPRT) gene editing frequency normalized to a cell not treated with a shRNA [1]: 2.11
G418 (neo) gene editing frequency normalized to a cell not treated with a shRNA [2]: 2.07

Reference: US20220106596A1, “A METHOD OF GENE EDITING” (University of Washington, priority 2019, published 2022)
